Experimental data: patent US20080279864A1 (Johns Hopkins, published 2008)
Ends that are not written are not given here.

B1: I-IIB(357-482)-pGADT7 (I-II loop of α1B fused to the GAL4 activation domain) (other, human, UniProt Q00975 357-482, looked up, not shown: large carriers)
chain: GEFAKERERVENRRAFLKLRRQQQIERELNGYLEWIFKAEEVMLAEEDRNAEEKSPLDVLKRAATKKSRNDLIHAEEGEDRFADLCAVGSPFARASLKSGKTESSSYFRRKEKMFRFFIRRMVKAQ
notes: range 357-482; Yeast two-hybrid fusion; GAL4 domain placed first by the vector's design; also called I-IIB (pGADT7)
B2: I-IIB(436-482)-pGADT7 (other, human, UniProt Q00975 436-482, looked up, not shown: large carriers)
chain: DRFADLCAVGSPFARASLKSGKTESSSYFRRKEKMFRFFIRRMVKAQ
notes: range 436-482; Yeast two-hybrid fusion; GAL4 domain placed first by the vector's design
B3: I-IIB(357-397)-pGADT7 (other, human, UniProt Q00975 357-397, looked up, not shown: large carriers)
chain: GEFAKERERVENRRAFLKLRRQQQIERELNGYLEWIFKAEE
notes: range 357-397; Yeast two-hybrid fusion; GAL4 domain placed first by the vector's design; Equating this segment with the 'N-terminal third' of the text is an inference; also called N-terminal third of the I-IIB loop; NH3-terminal third of the I-IIB loop
B4: NTB (1-44)-CFP (other)
chain: MVRFGDELGGRYGGPGGGERARGGGAGGAGGPGPGGLQPGQRVL-{ECFP}
modifications: also: ECFP fused C-terminally, linker not given here
notes: not shown: ECFP fused C-terminal to the test molecule
B5: NTB(1-55)-pGBKT7 (other)
chain: MKLLSSIEQACDICRLKKLKCSKEKPKCAKCLKNNWECRYSPKTKRSPLTRAHLTEVESRLERLEQLFLLIFPREDLDMILKMDSLQDIKALLTGLFVQDNVNKDAVTDRLASVETDMPLTLRQHRISATSSSEESSNKGQRQLTVSMVRFGDELGGRYGGPGGGERARGGGAGGAGGPGPGGLQPGQRVLYKQSIAQRART
notes: Yeast two-hybrid fusion; GAL4 domain placed first by the vector's design
B6: NTB (56-95)-CFP (other)
chain: MALYNPIPVKQNCFTVNRSLFVFSEDNVVRKYAKRITEWP-{ECFP}
modifications: also: ECFP fused C-terminally, linker not given here
notes: as for B4
B7: I-IIB(357-482)-pGBKT7 (I-II loop of α1B fused to the GAL4 binding domain) (other, UniProt P04386 1-147, looked up)
chain: MKLLSSIEQACDICRLKKLKCSKEKPKCAKCLKNNWECRYSPKTKRSPLTRAHLTEVESRLERLEQLFLLIFPREDLDMILKMDSLQDIKALLTGLFVQDNVNKDAVTDRLASVETDMPLTLRQHRISATSSSEESSNKGQRQLTVSGEFAKERERVENRRAFLKLRRQQQIERELNGYLEWIFKAEEVMLAEEDRNAEEKSPLDVLKRAATKKSRNDLIHAEEGEDRFADLCAVGSPFARASLKSGKTESSSYFRRKEKMFRFFIRRMVKAQ
notes: Yeast two-hybrid fusion; GAL4 domain placed first by the vector's design; also called I-IIB (pGBKT7)
B8: NTB-CFP (other)
chain: MVRFGDELGGRYGGPGGGERARGGGAGGAGGPGPGGLQPGQRVLYKQSIAQRARTMALYNPIPVKQNCFTVNRSLFVFSEDNVVRKYAKRITEWP
notes: also called NTB-CFP peptide; NTB (1-95) in FRET; not shown: ECFP fused C-terminal to the test molecule
B9: lam-pGBKT7 (lamin C attached to the GAL4 binding domain) (other, UniProt P04386 1-147, looked up)
chain: MKLLSSIEQACDICRLKKLKCSKEKPKCAKCLKNNWECRYSPKTKRSPLTRAHLTEVESRLERLEQLFLLIFPREDLDMILKMDSLQDIKALLTGLFVQDNVNKDAVTDRLASVETDMPLTLRQHRISATSSSEESSNKGQRQLTVSSEEVVSREVSGIKAAYEAELGDARKTLDSVAKERARLQLELSKVREEFKELKARNTKKEGDLIAAQARLKDLEALLNSKEAALSTALSEKRTLEGELHDLRGQVAKLEAALGEAKKQLQDEMLRRVDAENRLQTMKEELDFQKNIYSEELRETKRRHETRLVEID
B10: I-IIB(398-435)-pGADT7 (other, human, UniProt Q00975 398-435, looked up, not shown: large carriers)
chain: VMLAEEDRNAEEKSPLDVLKRAATKKSRNDLIHAEEGE
notes: range 398-435; Yeast two-hybrid fusion; GAL4 domain placed first by the vector's design
B11: pGADT7 (empty vector; the isolated GAL4 activating domain itself) (other, UniProt P04386 768-881, looked up)
chain: ANFNQSGNIADSSLSFTFTNSSNGPNLITTQTNSQALSQPIASSNVHDNFMNNEITASKIDDGNNSKPLSPGWTDQTAYNAFGITTGMFNTTTMDDVYNYLFDDEDTPPNPKKE
notes: also called empty pGADT7
B12: NTB(1-95)-pGBKT7 (NH3 terminus of α1B fused to the GAL4 binding domain) (other)
chain: MKLLSSIEQACDICRLKKLKCSKEKPKCAKCLKNNWECRYSPKTKRSPLTRAHLTEVESRLERLEQLFLLIFPREDLDMILKMDSLQDIKALLTGLFVQDNVNKDAVTDRLASVETDMPLTLRQHRISATSSSEESSNKGQRQLTVSMVRFGDELGGRYGGPGGGERARGGGAGGAGGPGPGGLQPGQRVLYKQSIAQRARTMALYNPIPVKQNCFTVNRSLFVFSEDNVVRKYAKRITEWP
notes: Yeast two-hybrid fusion; GAL4 domain placed first by the vector's design; also called NTB (pGBKT7); full-length NTB

Assays:
[1] = biological target: B9; experiment: yeast two-hybrid control against lamin C, % of colonies surviving on high stringency plates, mean ± SEM
[2] = biological target: T1, NTC(1-153)-pGBKT7 (NH3 terminus of α1C fused to the GAL4 binding domain) (rabbit, UniProt P04386 1-147; P15381 1-153); experiment: yeast two-hybrid
T1 construct: Yeast two-hybrid fusion; GAL4 domain placed first by the vector's design; also called NTC (pGBKT7)

I-IIB-YFP [3] = biological target: T2, I-IIB-YFP (human, UniProt Q00975 357-482); experiment: FRET two-hybrid in HEK293 cells
T2 construct: range 357-482; also called I-IIB in FRET; not shown: EYFP fused C-terminal to the test molecule

[4] = biological target: T3, Gβ1 fused to the GAL4 activation domain (Gβ1 in pGADT7) (UniProt P62871 1-340); experiment: yeast two-hybrid
T3 construct: Yeast two-hybrid fusion; GAL4 domain placed first by the vector's design; also called Gβ1 (pGADT7); Gβ1/pGADT7
T3 sequence (P62871 whole entry, the tested form may be a part): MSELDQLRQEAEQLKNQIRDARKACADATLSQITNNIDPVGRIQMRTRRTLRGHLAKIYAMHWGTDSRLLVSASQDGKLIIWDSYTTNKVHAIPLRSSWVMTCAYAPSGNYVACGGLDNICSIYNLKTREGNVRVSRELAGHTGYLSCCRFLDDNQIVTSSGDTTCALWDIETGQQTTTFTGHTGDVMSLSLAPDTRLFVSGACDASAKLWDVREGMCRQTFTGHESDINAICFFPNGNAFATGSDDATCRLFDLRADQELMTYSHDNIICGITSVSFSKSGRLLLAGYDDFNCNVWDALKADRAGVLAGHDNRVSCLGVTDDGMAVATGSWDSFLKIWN

[5] = biological target: T3, Gβ1 fused to the GAL4 activation domain …; experiment: yeast two-hybrid, Gβ1 in pGADT7 against I-IIB in pGBKT7
I-IIB-YFP [6] = biological target: T2, I-IIB-YFP; experiment: FRET two-hybrid in HEK293 cells (three-cube FRET and YFP photobleaching)
[7] = biological target: T3, Gβ1 fused to the GAL4 activation domain …; experiment: yeast two-hybrid, background control
[8] = biological target: B12; experiment: yeast two-hybrid auto-activation control (empty pGADT7), % of colonies surviving on high stringency plates, mean ± SEM
[9] = biological target: T4, CTA(1763-1928)pGBKT7 (proximal COOH terminus of the P/Q-type α1A subunit fused to the GAL4 binding domain) (UniProt P04386 1-147); experiment: as above
T4 construct: Yeast two-hybrid fusion; GAL4 domain placed first by the vector's design

[10] = biological target: T1, NTC(1-153)-pGBKT7 (NH3 terminus of α1C …); experiment: as above
NTB(Δ45-55)-pGBKT7 [11] = biological target: T5, NTB(Δ45-55)-pGBKT7 (human, UniProt Q00975 1-95); experiment: as above
T5 construct: Yeast two-hybrid fusion; GAL4 domain placed first by the vector's design; also called NTB peptide lacking residues 45-55

NTB(45-95)-pGBKT7 [12] = biological target: T6, NTB(45-95)-pGBKT7 (human, UniProt P04386 1-147 (Saccharomyces cerevisiae entry)); experiment: as above
T6 construct: Yeast two-hybrid fusion; GAL4 domain placed first by the vector's design

[13] = biological target: T7, CTC(1525-1670)pGBKT7 (proximal third of the α1C COOH terminus fused to the GAL4 binding domain) (rabbit, UniProt P04386 1-147; P15381 1525-1670); experiment: as above
T7 construct: Yeast two-hybrid fusion; GAL4 domain placed first by the vector's design; also called CTC (pGBKT7)

[14] = biological target: T8, NTA(2-100)pGBKT7 (NH3 terminus of the P/Q-type α1A subunit fused to the GAL4 binding domain) (UniProt P04386 1-147); experiment: as above
T8 construct: Yeast two-hybrid fusion; GAL4 domain placed first by the vector's design

NTB(1-55)-pGBKT7 [15] = biological target: B5; experiment: as above
[16] = biological target: B12; experiment: yeast two-hybrid auto-activation control (empty pGADT7), filter lift β-galactosidase assay, % of colonies turning blue, mean ± SEM
[17] = biological target: T4, CTA(1763-1928)pGBKT7 (proximal COOH …); experiment: as above
[18] = biological target: T1, NTC(1-153)-pGBKT7 (NH3 terminus of α1C …); experiment: as above
NTB(Δ45-55)-pGBKT7 [19] = biological target: T5, NTB(Δ45-55)-pGBKT7; experiment: as above
NTB(45-95)-pGBKT7 [20] = biological target: T6, NTB(45-95)-pGBKT7; experiment: as above
[21] = biological target: T7, CTC(1525-1670)pGBKT7 (proximal third of …); experiment: as above
[22] = biological target: T8, NTA(2-100)pGBKT7 (NH3 terminus of the …); experiment: as above
NTB(1-55)-pGBKT7 [23] = biological target: B5; experiment: as above

B1
High Stringency (%) [1]: 0.74% | binding result [2]: no binding

B2
High Stringency (%) [1]: 0%

B3
High Stringency (%) [1]: 0%

B4
binding result (I-IIB-YFP [3]): no binding

B5
binding result [4]: binds

B6
binding result (I-IIB-YFP [3]): binds

B7
binding result [5]: binds

B8
binding result (I-IIB-YFP [6]): binds

B9
binding result [7]: no binding

B10
High Stringency (%) [1]: 0.04%

B11
High Stringency (%) [8]: 0.34% | High Stringency (%) [9]: 0.1% | High Stringency (%) [10]: 1% | High Stringency (%) (NTB(Δ45-55)-pGBKT7 [11]): 0.56% | High Stringency (%) (NTB(45-95)-pGBKT7 [12]): 0% | High Stringency (%) [13]: 0% | High Stringency (%) [14]: 0% | High Stringency (%) (NTB(1-55)-pGBKT7 [15]): 3.84% | Filter Lift Assay (%) [16]: 0.14% | Filter Lift Assay (%) [17]: 0% | Filter Lift Assay (%) [18]: 0% | Filter Lift Assay (%) (NTB(Δ45-55)-pGBKT7 [19]): 2.5% | Filter Lift Assay (%) (NTB(45-95)-pGBKT7 [20]): 0% | Filter Lift Assay (%) [21]: 0% | Filter Lift Assay (%) [22]: 0.82% | Filter Lift Assay (%) (NTB(1-55)-pGBKT7 [23]): 1.56%

B12
binding result [4]: binds
